Measurements reported in the supplement of paper PMC10567573.

B1: KLHDC10 (parent)
chain: FGGTGIPFGESNGNGVHVCNVKYK

Variants of: B1
Test: protein stability index of a GFP-peptide fusion (GPS, HEK-293T) (PSI 1-6); higher = more stable
Conditions: c terminus: a fixed tail appended
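Also: lentivirally expressed fusions sorted by FACS into six bins by GFP to DsRed ratio, PSI derived from sequencing read proportions per bin multiplied by bin number.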

Variant	protein stability index
FGGTGIPFGESNLNGVHVCNVKYK [G13L]	2.05
FGGTGIPFGESNDNGVHVCNVKYK [G13D]	2.18
FGGTGIPFGESNPNGVHVCNVKYK [G13P]	1.91
FGGTGIPFGESNANGVHVCNVKYK [G13A]	2.02
FGGTGIPFGESNFNGVHVCNVKYK [G13F]	1.9
FGGTGIPFCESNGNGVHVCNVKYK [G9C]	1.41
FGGTGIPFRESNGNGVHVCNVKYK [G9R]	1.76
FGGTGIPFYESNGNGVHVCNVKYK [G9Y]	2.15
FGGTGIPFLESNGNGVHVCNVKYK [G9L]	1.39
FGGTGIPFWESNGNGVHVCNVKYK [G9W]	2.89
FGGTGIPFTESNGNGVHVCNVKYK [G9T]	1.66
FGGTGIPFGESAGNGVHVCNVKYK [N12A]	1.85
FGGTGIPFGESVGNGVHVCNVKYK [N12V]	1.6
FGGTGIPFGESHGNGVHVCNVKYK [N12H]	2.22
FGGTGIPFGESCGNGVHVCNVKYK [N12C]	1.63
FGGTGIPFGESGGNGVHVCNVKYK [N12G]	1.62
FGGTGIPFGESQGNGVHVCNVKYK [N12Q]	2.06
FGGTGIPFGESEGNGVHVCNVKYK [N12E]	2.11
FGGTGIPFGESNGNGVHHCNVKYK [V18H]	2.06
FGGTGIPFGESNGNGVHYCNVKYK [V18Y]	2.19
FGGTGIPFGESNGNGVHTCNVKYK [V18T]	2.27
FGGTGIPFGESNGNGVHDCNVKYK [V18D]	3.08
FGGTGIPFGESNGNGVHGCNVKYK [V18G]	2.24
FGGTGIPFGESNGNGVHWCNVKYK [V18W]	1.75

Variant	protein stability index
FGGTGIPFGESNGNGVHSCNVKYK [V18S]	2.45
FGGTGIPFGESNGNGVHNCNVKYK [V18N]	2.31
FGGTGIPFGESNGNGVHQCNVKYK [V18Q]	2.04
FGGTGIPFGESNGNGVHMCNVKYK [V18M]	2.24
FGGTGIPFGELNGNGVHVCNVKYK [S11L]	1.62
FGGTGIPFGEINGNGVHVCNVKYK [S11I]	2.73
FGGTGIPFGEFNGNGVHVCNVKYK [S11F]	1.72
FGGTGIPFGEQNGNGVHVCNVKYK [S11Q]	2.06
FGGTGIPFGERNGNGVHVCNVKYK [S11R]	1.97
FGGTGIPFGEVNGNGVHVCNVKYK [S11V]	2.35
FGGTGIPFGEDNGNGVHVCNVKYK [S11D]	2.52
FGGTGIPFGENNGNGVHVCNVKYK [S11N]	1.91
FGGTGIPFGEPNGNGVHVCNVKYK [S11P]	2.3
FGGTGIPFGEHNGNGVHVCNVKYK [S11H]	2.2
FGGTGIPFGESNGNGVGVCNVKYK [H17G]	1.63
FGGTGIPFGESNGNGVQVCNVKYK [H17Q]	2.45
FGGTGIPFGESNGNGVWVCNVKYK [H17W]	1.64
FGGTGIPFGESNGNGVDVCNVKYK [H17D]	2.54
FGGTGIPFGESNGNGVFVCNVKYK [H17F]	2.34
FGGTGIPFGESNGNGVNVCNVKYK [H17N]	2.03
FGGTGIPFGESNGNGVVVCNVKYK [H17V]	2.32
FGGAGIPFGESNGNGVHVCNVKYK [T4A]	2.02
FGGSGIPFGESNGNGVHVCNVKYK [T4S]	1.82
FGGQGIPFGESNGNGVHVCNVKYK [T4Q]	1.6

Variant	protein stability index
FGGGGIPFGESNGNGVHVCNVKYK [T4G]	2.03
FGGYGIPFGESNGNGVHVCNVKYK [T4Y]	1.68
FGGKGIPFGESNGNGVHVCNVKYK [T4K]	1.72
FGGCGIPFGESNGNGVHVCNVKYK [T4C]	1.94
FGGTQIPFGESNGNGVHVCNVKYK [G5Q]	2.42
FGGTSIPFGESNGNGVHVCNVKYK [G5S]	2.39
FGGTMIPFGESNGNGVHVCNVKYK [G5M]	2.47
FGGTRIPFGESNGNGVHVCNVKYK [G5R]	2
FGGTYIPFGESNGNGVHVCNVKYK [G5Y]	1.34
FGGTWIPFGESNGNGVHVCNVKYK [G5W]	2.69
FGGTPIPFGESNGNGVHVCNVKYK [G5P]	1.86
FGGTKIPFGESNGNGVHVCNVKYK [G5K]	1.52
FGGTNIPFGESNGNGVHVCNVKYK [G5N]	2.87
FGGTDIPFGESNGNGVHVCNVKYK [G5D]	2.95
FGGTFIPFGESNGNGVHVCNVKYK [G5F]	1.92
FGGTGIPFGESNGNGVHVCNHKYK [V21H]	1.7
FGGTGIPFGESNGNGVHVCNLKYK [V21L]	1.58
FGGTGIPFGESNGNGVHVCNDKYK [V21D]	2.14
FGGTGIPFGESNGNGVHVCNTKYK [V21T]	2.17
FGGTGIPFGESNGNGVHVCNNKYK [V21N]	2.54
FGGTGIPFGESNGNGVHVCNKKYK [V21K]	1.98
FGGTGIPFGESNGNGVHVCNFKYK [V21F]	1.82
FGGTGKPFGESNGNGVHVCNVKYK [I6K]	2.2
FGGTGVPFGESNGNGVHVCNVKYK [I6V]	2.16

Variant	protein stability index
FGGTGTPFGESNGNGVHVCNVKYK [I6T]	1.84
FGGTGHPFGESNGNGVHVCNVKYK [I6H]	2.08
FGGTGEPFGESNGNGVHVCNVKYK [I6E]	3.02
FGGTGFPFGESNGNGVHVCNVKYK [I6F]	2.3
FGGTGCPFGESNGNGVHVCNVKYK [I6C]	1.87
FGGTGIPFGESNGNGVHVYNVKYK [C19Y]	2.06
FGGTGIPFGESNGNGVHVENVKYK [C19E]	2.76
FGGTGIPFGESNGNGVHVQNVKYK [C19Q]	2.29
FGGTGIPFGESNGNGVHVRNVKYK [C19R]	2.35
FGGTGIPFGESNGNGVHVTNVKYK [C19T]	2.01
FGGTGIPFGESNGNGVHVANVKYK [C19A]	2.31
FGGTGIPFGESNGNGVHVFNVKYK [C19F]	2.62
FGGTGIPFGESNGNGVHVHNVKYK [C19H]	1.46
FGGTGIPFGESNGNDVHVCNVKYK [G15D]	2.3
FGGTGIPFGESNGNCVHVCNVKYK [G15C]	1.58
FGGTGIPFGESNGNIVHVCNVKYK [G15I]	1.77
FGGTGIPFGESNGNMVHVCNVKYK [G15M]	1.52
FGGTGIPFGESNGNWVHVCNVKYK [G15W]	1.62
FGGTGIPFGESNGNSVHVCNVKYK [G15S]	2.14
FGGTGIPFGESNGNEVHVCNVKYK [G15E]	2.34
FGGTGIPFGESNGNGVHVCNVKWK [Y23W]	2.62
FGGTGIPFGESNGNGVHVCNVKAK [Y23A]	2.76
FGGTGIPFGESNGNGVHVCNVKLK [Y23L]	2.07
FGGTGIPFGESNGNGVHVCNVKEK [Y23E]	2.47

Variant	protein stability index
FGGTGIPFGESNGNGVHVCNVKFK [Y23F]	2.03
FGGTGIPFGESNGNGVHVCNVKDK [Y23D]	3.3
FGGTGIPFGESNGNGVHVCNVKHK [Y23H]	2.43
FGGTGIPFGESNGNGVHVCNVKSK [Y23S]	2.99
FGGTGIPFGESNGNGVHVCNVKRK [Y23R]	2.17
FGGTGIPFGESNGNGVHVCNVKCK [Y23C]	2.54
FGGTGIPGGESNGNGVHVCNVKYK [F8G]	3.58
FGGTGIPTGESNGNGVHVCNVKYK [F8T]	3.22
FGGTGIPYGESNGNGVHVCNVKYK [F8Y]	2.16
FGGTGIPAGESNGNGVHVCNVKYK [F8A]	3.78
FGGTGIPRGESNGNGVHVCNVKYK [F8R]	3.37
FGGTGIPDGESNGNGVHVCNVKYK [F8D]	4.16
FGGTGIPFGESNGNGVHVCNVWYK [K22W]	2.1
FGGTGIPFGESNGNGVHVCNVRYK [K22R]	2.34
FGGTGIPFGESNGNGVHVCNVGYK [K22G]	1.98
FGGTGIPFGESNGNGVHVCNVLYK [K22L]	1.29
FGGTGIPFGESNGNGVHVCNVHYK [K22H]	2.07
FGGTGIPFGESNGNGVHVCNVSYK [K22S]	1.29
FGGTGIPFGESNGNGVHVCNVTYK [K22T]	1.98
FGGTGIPFGESNGNGVHVCNVFYK [K22F]	1.63
FGGTGIPFGESNGNGVHVCNVPYK [K22P]	1.91
FGGTGIPFGESNGDGVHVCNVKYK [N14D]	1.87
FGGTGIPFGESNGVGVHVCNVKYK [N14V]	2.67
FGGTGIPFGESNGCGVHVCNVKYK [N14C]	1.87

Variant	protein stability index
FGGTGIPFGESNGRGVHVCNVKYK [N14R]	2.04
FGGTGIPFGESNGEGVHVCNVKYK [N14E]	2.47
FGGTGIPFGESNGWGVHVCNVKYK [N14W]	3.08
FGGTGIPFGESNGNGVHVCNVKYL [K24L]	2.06
FGGTGIPFGESNGNGVHVCNVKYR [K24R]	1.63
FGGTGIPFGESNGNGVHVCNVKYQ [K24Q]	2
FGGTGIPFGESNGNGVHVCNVKYT [K24T]	3.32
FGGTGIPFGESNGNGVHVCNVKYC [K24C]	1.75
FGGTGIPFGESNGNGVHVCNVKYA [K24A]	1.23
FGGTGIPFGESNGNGVHVCNVKYI [K24I]	1.42
FGGTGIPFGESNGNGVHVCNVKYP [K24P]	2.11
FGGTGIPFGESNGNGVHVCNVKYH [K24H]	1.57
FGGTGIPFGESNGNGVHVCNVKYG [K24G]	1.6
FGGTGIPFGESNGNGVHVCNVKYS [K24S]	1.66
FGGTGIPFGESNGNGVHVCNVKYN [K24N]	1.82
FGGTGIPFGESNGNGVHVCGVKYK [N20G]	1.66
FGGTGIPFGESNGNGVHVCHVKYK [N20H]	1.48
FGGTGIPFGESNGNGVHVCDVKYK [N20D]	1.98
FGGTGIPFGESNGNGVHVCTVKYK [N20T]	1.75
FGGTGIPFGESNGNGVHVCAVKYK [N20A]	2.35
FGGTGIPFGESNGNGDHVCNVKYK [V16D]	2.42
FGGTGIPFGESNGNGFHVCNVKYK [V16F]	2.23
FGGTGIPFGESNGNGIHVCNVKYK [V16I]	2.46
FGGTGIPFGESNGNGQHVCNVKYK [V16Q]	2.04

Variant	protein stability index
FGGTGIPFGESNGNGHHVCNVKYK [V16H]	2.1
FGGTGIPFGESNGNGKHVCNVKYK [V16K]	2.15
FGGTGIPFGESNGNGWHVCNVKYK [V16W]	2.49
FGGTGIPFGMSNGNGVHVCNVKYK [E10M]	2.26
FGGTGIPFGASNGNGVHVCNVKYK [E10A]	2.94
FGGTGIPFGTSNGNGVHVCNVKYK [E10T]	1.62
FGGTGIPFGCSNGNGVHVCNVKYK [E10C]	1.51
FGGTGIPFGSSNGNGVHVCNVKYK [E10S]	3.04
FGGTGIPFGDSNGNGVHVCNVKYK [E10D]	1.73
FGLTGIPFGESNGNGVHVCNVKYK [G3L]	2.63
FGWTGIPFGESNGNGVHVCNVKYK [G3W]	1.42
FGSTGIPFGESNGNGVHVCNVKYK [G3S]	2.61
FGDTGIPFGESNGNGVHVCNVKYK [G3D]	2.38
FGATGIPFGESNGNGVHVCNVKYK [G3A]	2.52
FGRTGIPFGESNGNGVHVCNVKYK [G3R]	2.77
FGITGIPFGESNGNGVHVCNVKYK [G3I]	2.13
FGCTGIPFGESNGNGVHVCNVKYK [G3C]	3.1
FGETGIPFGESNGNGVHVCNVKYK [G3E]	3.3
DGGTGIPFGESNGNGVHVCNVKYK [F1D]	4.58
MGGTGIPFGESNGNGVHVCNVKYK [F1M]	4.04
AGGTGIPFGESNGNGVHVCNVKYK [F1A]	4.18
CGGTGIPFGESNGNGVHVCNVKYK [F1C]	3.03
QGGTGIPFGESNGNGVHVCNVKYK [F1Q]	4.24
EGGTGIPFGESNGNGVHVCNVKYK [F1E]	3.67

Variant	protein stability index
NGGTGIPFGESNGNGVHVCNVKYK [F1N]	4.34
VGGTGIPFGESNGNGVHVCNVKYK [F1V]	3.79
PGGTGIPFGESNGNGVHVCNVKYK [F1P]	3.9
FHGTGIPFGESNGNGVHVCNVKYK [G2H]	2.58
FNGTGIPFGESNGNGVHVCNVKYK [G2N]	2.16
FIGTGIPFGESNGNGVHVCNVKYK [G2I]	2.14
FLGTGIPFGESNGNGVHVCNVKYK [G2L]	2.19
FAGTGIPFGESNGNGVHVCNVKYK [G2A]	2.2
FWGTGIPFGESNGNGVHVCNVKYK [G2W]	2.2
FVGTGIPFGESNGNGVHVCNVKYK [G2V]	1.92
FCGTGIPFGESNGNGVHVCNVKYK [G2C]	2.41
FPGTGIPFGESNGNGVHVCNVKYK [G2P]	1.83
FSGTGIPFGESNGNGVHVCNVKYK [G2S]	2.11
FGGTGIQFGESNGNGVHVCNVKYK [P7Q]	2.06
FGGTGICFGESNGNGVHVCNVKYK [P7C]	1.5
FGGTGIAFGESNGNGVHVCNVKYK [P7A]	1.41
FGGTGIDFGESNGNGVHVCNVKYK [P7D]	2.92
FGGTGIKFGESNGNGVHVCNVKYK [P7K]	2.01
FGGTGIMFGESNGNGVHVCNVKYK [P7M]	1.29
FGGTGIEFGESNGNGVHVCNVKYK [P7E]	2.44
